B1: SPOPL (parent)
chain: YTGRAPNLDKMADNLLAAADKYAL
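Note: lentivirally expressed fusions sorted by FACS into six bins by GFP to DsRed ratio, PSI derived from sequencing read proportions per bin multiplied by bin number.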

Variants of: B1
Assay: protein stability index of a GFP-peptide fusion (GPS, HEK-293T) (PSI 1-6); higher = more stable
Conditions: c terminus: a fixed tail appended
For YTGRAPNLDKMADNLLAAADKLAL [Y22L], the protein stability index was 1.61.
In the case of YTGRAPNLDKMADNLLAAADKRAL [Y22R], the protein stability index is reported as 3.05.
Variant YTGRAPNLDKMADNLLAAADKGAL [Y22G] has a protein stability index of 3.2.
Variant YTGRAPNLDKMADNLLAAADKVAL [Y22V] has a protein stability index of 2.27.
With YTGRAPNLDKMADNLLAAADKHAL [Y22H] the protein stability index was 2.18.
YTGRAPNLDKMADNLLAAADKTAL [Y22T] showed a protein stability index of 2.72.
YTGRAPNLDKMADNLLAAADKPAL [Y22P] gave a protein stability index of 2.73.
Variant YTGRAPNLDKMATNLLAAADKYAL [D13T] has a protein stability index of 1.91.
YTGRAPNLDKMAVNLLAAADKYAL [D13V] showed a protein stability index of 1.73.
In the case of YTGRAPNLDKMADNLLAAADKYFL [A23F], the protein stability index is reported as 1.81.
In the case of YTGRAPNLDKMADNLLAAADKYVL [A23V], the protein stability index is reported as 1.54.
Variant YTGRAPNLDKMADNLLAAADKYYL [A23Y] has a protein stability index of 2.02.
Work on YTGRAPNLDKMADNLLAAADKYML [A23M] yielded a protein stability index of 2.18.
In the case of YTGRAPNLDKMADNLLAAADKYLL [A23L], the protein stability index is reported as 1.67.
YTGRAPNLDKMADNLLAAADKYTL [A23T] showed a protein stability index of 2.71.
Variant YTGRAPNLDKMADNLLAAADKYHL [A23H] has a protein stability index of 1.78.
YTGRAPNLDKMADNLLAAADKYKL [A23K] showed a protein stability index of 2.37.
For YTGRAPNLDKMADNLLAAADKYGL [A23G], the protein stability index was 1.83.
YTGRAPNLDKMADNLLAAADKYQL [A23Q] showed a protein stability index of 2.4.
For YTGRAPNLDKMADNLLAAADKYEL [A23E], the protein stability index was 2.77.
YTGRAPNLDKMADNLLAAADKYRL [A23R] showed a protein stability index of 1.91.
YTGRAPNLDKMADNLLAAADKYPL [A23P] showed a protein stability index of 2.24.
Variant YTGRAPNLDKMADNLLAAADKYNL [A23N] has a protein stability index of 2.3.
Work on YTGRAPNLDKMADNLLAAADKYWL [A23W] yielded a protein stability index of 1.22.
For YTGRAPNLDKMADNLLAAADKYIL [A23I], the protein stability index was 1.65.
With YTGRAPNLDKMADNLLAAADKYDL [A23D] the protein stability index was 2.45.
Work on YTGRAPNLDKMADNLLAAADKYCL [A23C] yielded a protein stability index of 2.57.
Work on YTGRAPNLDKMADNLLAAADKYSL [A23S] yielded a protein stability index of 1.97.
For YTGRAPNLDKMADNLLAAIDKYAL [A19I], the protein stability index was 2.76.
YTGRAPNLDKMADNLLAAEDKYAL [A19E] showed a protein stability index of 2.33.
For YTGRAPNLDKMADNLLAAFDKYAL [A19F], the protein stability index was 1.5.
YTGRAPNLDKMADNLLAARDKYAL [A19R] gave a protein stability index of 2.25.
Work on YTGRAPNLDKMADNLLAASDKYAL [A19S] yielded a protein stability index of 1.65.
Work on YTGRAPNLDKMADNLLAANDKYAL [A19N] yielded a protein stability index of 2.49.
Variant YTGRAPNLDKMADNLLAAKDKYAL [A19K] has a protein stability index of 1.64.
YTGRAPNLDKMADNLLAAWDKYAL [A19W] showed a protein stability index of 1.37.
Work on YTGRAPNLDKMADNLLAAQDKYAL [A19Q] yielded a protein stability index of 2.77.
YTGRAPNLDKMADNLLAAYDKYAL [A19Y] gave a protein stability index of 2.11.
In the case of YTGRAPNLDKMADNLLAAHDKYAL [A19H], the protein stability index is reported as 2.24.
For YTGRAPNLDKMADNLLAATDKYAL [A19T], the protein stability index was 1.99.
For YTGRAPNLDKMADNLLAAPDKYAL [A19P], the protein stability index was 2.7.
For YTGRAPNLDKMADNLLAAMDKYAL [A19M], the protein stability index was 2.22.
For YTGRAPNLDKMADNLLAAGDKYAL [A19G], the protein stability index was 2.23.
YTGRAPNLDKMADNLLAADDKYAL [A19D] gave a protein stability index of 2.76.
With YTGRAPNLDKMADNLLAAADAYAL [K21A] the protein stability index was 2.04.
For YTGRAPNLDKMADNLLAAADEYAL [K21E], the protein stability index was 3.6.
YTGRAPNLDKMADNLLAAADSYAL [K21S] gave a protein stability index of 1.92.
In the case of YTGRAPNLDKMADNLLAAADDYAL [K21D], the protein stability index is reported as 2.36.
Variant YTGRAPNLDKMADNLLAAADYYAL [K21Y] has a protein stability index of 1.13.
YTGRAPNLDKMADNLLAAADPYAL [K21P] gave a protein stability index of 2.48.
YTGRAPNLDKMADNLLAAADQYAL [K21Q] showed a protein stability index of 3.78.
Work on YTGRAPNLDKMADNLLAAADNYAL [K21N] yielded a protein stability index of 2.11.
In the case of YTGRAPNLDKMADNLLAAADVYAL [K21V], the protein stability index is reported as 2.53.
YTGRAPNLDKMADNLLAAADMYAL [K21M] gave a protein stability index of 1.65.
In the case of YTGRAPNLDKMADNLLAAADLYAL [K21L], the protein stability index is reported as 2.02.
YTGRAPNLDKMADNLLAAADWYAL [K21W] showed a protein stability index of 2.02.
YTGRAPNLDKMADNLLAAADIYAL [K21I] gave a protein stability index of 1.42.
YTGRAPNLDKMADNLLAAADHYAL [K21H] showed a protein stability index of 1.89.
YTGRAPNLDKMADNLLAAADGYAL [K21G] showed a protein stability index of 1.81.
Variant YTGRAPNLDKMADNLLAAADCYAL [K21C] has a protein stability index of 1.88.
YTGRAPNLDKMADNLLAAAKKYAL [D20K] gave a protein stability index of 1.4.
For YTGRAPNLDKMADNLLAAARKYAL [D20R], the protein stability index was 2.57.
YTGRAPNLDKMADNLLAAAIKYAL [D20I] showed a protein stability index of 1.71.
For YTGRAPNLDKMADNLLAAAEKYAL [D20E], the protein stability index was 1.61.
For YTGRAPNLDKMADNLLAAAMKYAL [D20M], the protein stability index was 2.22.
For YTGRAPNLDKMADNLLAAAFKYAL [D20F], the protein stability index was 1.39.
In the case of YTGRAPNLDKMADNLLAAAHKYAL [D20H], the protein stability index is reported as 2.14.
Variant YTGRAPNLDKMADNLLAAAQKYAL [D20Q] has a protein stability index of 1.53.
Work on YTGRAPNLDKMADNLLAAAPKYAL [D20P] yielded a protein stability index of 1.41.
Variant YTGRAPNLDKMADNLLAAATKYAL [D20T] has a protein stability index of 2.34.
With YTGRAPNLDKMADNLLAAASKYAL [D20S] the protein stability index was 1.48.
YTGRAPNLDKMADNLLAAANKYAL [D20N] gave a protein stability index of 1.3.
In the case of YTGRAPNLDKMADNLLAAALKYAL [D20L], the protein stability index is reported as 1.84.
Variant YTGRAPNLDKMADNLLAAAGKYAL [D20G] has a protein stability index of 2.29.
In the case of YTGRAPNLDKMADNLLAAAVKYAL [D20V], the protein stability index is reported as 3.92.
Variant YTGRAPNLDKMADNLLAAACKYAL [D20C] has a protein stability index of 1.99.
Variant YTGRAPNLDKMADNLLVAADKYAL [A17V] has a protein stability index of 2.
For YTGRAPNLDKMADNLLEAADKYAL [A17E], the protein stability index was 2.98.
YTGRAPNLDKMADNLLTAADKYAL [A17T] gave a protein stability index of 2.55.
YTGRAPNLDKMADNLLMAADKYAL [A17M] showed a protein stability index of 1.4.
Variant YTGRAPNLDKMADNLLFAADKYAL [A17F] has a protein stability index of 2.04.
Work on YTGRAPNLDKMADNLLNAADKYAL [A17N] yielded a protein stability index of 2.44.
YTGRAPNLDKMADNLLYAADKYAL [A17Y] gave a protein stability index of 1.62.
YTGRAPNLDKMADNLLRAADKYAL [A17R] gave a protein stability index of 2.05.
Work on YTGRAPNLDKMADNLLLAADKYAL [A17L] yielded a protein stability index of 2.34.
YTGRAPNLDKMADNLLPAADKYAL [A17P] gave a protein stability index of 1.95.
For YTGRAPNLDKMADNLLIAADKYAL [A17I], the protein stability index was 1.58.
Work on YTGRAPNLDKMADNLLSAADKYAL [A17S] yielded a protein stability index of 2.27.
Work on YTGRAPNLDKMADNLLQAADKYAL [A17Q] yielded a protein stability index of 2.33.
With YTGRAPNLDKMADNLLCAADKYAL [A17C] the protein stability index was 2.28.
Variant YTGRAPNLDKMADNLLHAADKYAL [A17H] has a protein stability index of 2.08.
YTGRAPNLDKMADNLLDAADKYAL [A17D] showed a protein stability index of 2.7.
For YTGRAPNLDKMADNLLKAADKYAL [A17K], the protein stability index was 2.28.
YTGRAPNLDKMADNLLGAADKYAL [A17G] showed a protein stability index of 2.79.
